T1: human TRPV2 (transient receptor potential cation channel, subfamily V, member 2) (human, UniProt Q9Y5S1 1-764)
T1 sequence: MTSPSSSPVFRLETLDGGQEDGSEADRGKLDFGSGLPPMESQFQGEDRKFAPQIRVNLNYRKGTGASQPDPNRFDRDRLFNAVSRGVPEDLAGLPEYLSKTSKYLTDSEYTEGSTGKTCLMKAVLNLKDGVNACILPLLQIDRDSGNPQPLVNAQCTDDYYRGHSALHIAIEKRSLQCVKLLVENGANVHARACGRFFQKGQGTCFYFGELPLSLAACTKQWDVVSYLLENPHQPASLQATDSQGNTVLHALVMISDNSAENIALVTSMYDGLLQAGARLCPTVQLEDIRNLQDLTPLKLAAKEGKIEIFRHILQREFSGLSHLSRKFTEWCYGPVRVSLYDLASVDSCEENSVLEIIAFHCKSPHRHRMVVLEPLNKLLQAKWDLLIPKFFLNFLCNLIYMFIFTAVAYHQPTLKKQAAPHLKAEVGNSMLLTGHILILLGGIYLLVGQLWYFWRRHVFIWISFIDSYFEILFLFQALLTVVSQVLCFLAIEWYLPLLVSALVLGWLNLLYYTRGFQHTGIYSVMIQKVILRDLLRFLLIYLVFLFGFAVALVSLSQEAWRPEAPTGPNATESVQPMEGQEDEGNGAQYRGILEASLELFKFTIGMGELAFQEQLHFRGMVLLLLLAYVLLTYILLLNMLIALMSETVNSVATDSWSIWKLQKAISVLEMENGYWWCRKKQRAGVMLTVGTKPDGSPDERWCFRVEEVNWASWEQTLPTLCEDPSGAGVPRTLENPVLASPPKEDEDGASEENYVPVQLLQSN

T2: mouse TRPV2 (mouse, UniProt Q9WTR1 1-756)
T2 construct: whole, on cells; In the Western blot solubilised from the cells; also called mTRPV2; mTRPV2-expressing HEK293 cells
T2 sequence (looked up): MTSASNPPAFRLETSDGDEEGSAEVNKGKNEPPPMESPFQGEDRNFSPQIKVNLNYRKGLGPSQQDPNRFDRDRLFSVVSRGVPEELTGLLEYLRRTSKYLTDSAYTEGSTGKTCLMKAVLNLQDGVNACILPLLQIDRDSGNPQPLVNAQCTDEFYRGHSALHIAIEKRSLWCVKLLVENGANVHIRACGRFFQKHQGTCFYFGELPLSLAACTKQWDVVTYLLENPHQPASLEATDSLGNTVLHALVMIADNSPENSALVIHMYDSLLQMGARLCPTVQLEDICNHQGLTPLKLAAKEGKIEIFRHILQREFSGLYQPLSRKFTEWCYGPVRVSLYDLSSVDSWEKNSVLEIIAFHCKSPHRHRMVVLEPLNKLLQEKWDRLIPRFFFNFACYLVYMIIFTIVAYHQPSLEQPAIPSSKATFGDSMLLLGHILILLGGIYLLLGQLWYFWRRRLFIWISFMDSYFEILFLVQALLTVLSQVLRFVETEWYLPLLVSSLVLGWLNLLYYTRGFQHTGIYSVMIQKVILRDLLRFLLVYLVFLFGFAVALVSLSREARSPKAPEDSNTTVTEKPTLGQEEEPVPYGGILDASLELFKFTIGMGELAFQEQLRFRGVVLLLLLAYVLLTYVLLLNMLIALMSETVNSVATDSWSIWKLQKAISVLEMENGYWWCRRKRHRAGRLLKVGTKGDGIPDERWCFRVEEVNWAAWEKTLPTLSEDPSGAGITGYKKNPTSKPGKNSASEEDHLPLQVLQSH

T3: hTRPV2 extracellular domain-biotin (572-609) (human, biotin added with the lysine residue at the C-terminus)
T3 construct: Synthetic polypeptide, analyte in the SPR measurement; also called hTRPV2 extracellular domain (572-609)
T3 peptide: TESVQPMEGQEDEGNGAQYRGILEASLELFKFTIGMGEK

T4: biotinylated hTRPV2 (hTRPV2 full-length expression vector with Myc-Biotinylation-His tag, expressed in HEK293 … (human, UniProt Q9Y5S1 1-764, biotinylated on the tag (Myc-Biotin-His tag)))
T4 construct: also called biotinylated hTRPV2-expressing HEK293 cells; not shown: Myc-Biotinylation-His tag
T4 sequence: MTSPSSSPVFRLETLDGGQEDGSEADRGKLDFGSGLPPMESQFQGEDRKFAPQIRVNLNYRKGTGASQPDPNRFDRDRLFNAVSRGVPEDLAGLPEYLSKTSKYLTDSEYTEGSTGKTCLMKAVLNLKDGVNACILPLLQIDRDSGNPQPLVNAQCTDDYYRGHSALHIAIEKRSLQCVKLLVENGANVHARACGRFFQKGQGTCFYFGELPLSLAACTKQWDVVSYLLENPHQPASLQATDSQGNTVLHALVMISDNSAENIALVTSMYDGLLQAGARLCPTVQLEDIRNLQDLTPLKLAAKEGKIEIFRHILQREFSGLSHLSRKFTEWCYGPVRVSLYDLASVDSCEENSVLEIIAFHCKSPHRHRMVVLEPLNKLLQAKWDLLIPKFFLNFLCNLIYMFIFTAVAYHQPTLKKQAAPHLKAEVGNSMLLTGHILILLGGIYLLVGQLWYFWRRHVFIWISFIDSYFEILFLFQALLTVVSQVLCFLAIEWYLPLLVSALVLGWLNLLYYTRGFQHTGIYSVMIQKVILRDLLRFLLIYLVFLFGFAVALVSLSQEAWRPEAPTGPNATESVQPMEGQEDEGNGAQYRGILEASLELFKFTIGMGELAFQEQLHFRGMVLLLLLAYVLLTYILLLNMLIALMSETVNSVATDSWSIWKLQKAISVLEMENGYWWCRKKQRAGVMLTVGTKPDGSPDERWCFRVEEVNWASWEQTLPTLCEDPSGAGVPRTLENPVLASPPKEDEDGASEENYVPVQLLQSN


Assays:
[1] = target: T1, human TRPV2 (transient receptor …); assay: cell-based or functional assay
mouse TRPV2 = target: T2, mouse TRPV2; assay: Western blot of solubilised mTRPV2-expressing HEK293 cells
[2] = target: T3, hTRPV2 extracellular domain-biotin …; assay: SPR (Biacore T200), antibody captured on anti-mouse IgG(Fc), peptide 10-1000 nM as analyte, 1:1 model
[3] = target: T4, biotinylated hTRPV2 (hTRPV2 full-length …); assay: flow cytometry on hTRPV2-expressing 293 cells, purified IgG

Binder | binding result [3] | other results
anti-human TRPV2 IgG antibody mAb002 (02a001) (antibody, V domains shown, Mouse IgG: VH joined to mouse CH1,2,3 and VL to CK, made in CHO-K1 cells, purified on Protein A; also called anti-hTRPV2 antibody (mAb002)) VH: QVQLKQSGPVLVAPSQSLSITCTVSGFSLTSFGIHWVRQPPGKGLEWLGVIWSGGITHYNSALMSRLSISKDNSKSQVFLKMNSLQTDDTAMYYCAKLYSHPHAMDYWGQGTSVTVSS VL: DIVMTQAAPSVPVTPGESVSISCRSSKSLLHSNGITYLYWFLQRPGQSPQLLIYRMSNLASGVPDRFSASGSGTAFTLRISRVEAEDVGVYYCMQHLEYPLTFGAGTKLELK | – | IC50 of the inhibition of Ca 2+ influx into hTRPV2-expressing HEK293 cells (Cal520 fluorescence, cannabidiol and probenecid stimulation) [1]: 8.9 nM; binding result (mouse TRPV2): no binding (tested: 500-fold dilution); Kd [2]: 19.2 nM
humanized mAb002 antibody (VH14+VL1) (antibody, V domains shown, Full-length human IgG made in Expi293F cells) VH: QVQLQESGPGLVKPSQSLSLTCTVSGFSLTSFGIHWIRQPPGKGLEWIGVIWSGGITHYNSALMSRVSISKDTSKNQVFLKLSSVTAADTAMYYCAKLYSHPHAMDYWGQGTLVTVSS VL: DIVMTQSPLSLPVTPGEPASISCRSSKSLLHSNGITYLYWYLQKPGQSPQLLIYRMSNLASGVPDRFSGSGSGTDFTLKISRVEAEDVGVYYCMQHLEYPLTFGGGTKLEIK | binds | –
humanized mAb002 antibody (VH12+VL1) (antibody, V domains shown, Full-length human IgG made in Expi293F cells) VH: QVQLQESGPGLVKPSQSLSLTCTVSGFSLTSFGIHWIRQPPGKGLEWIGVIWSGGITHYNSALMSRVSISKDNSKNQVFLKMNSVTAADTAMYYCAKLYSHPHAMDYWGQGTLVTVSS VL: DIVMTQSPLSLPVTPGEPASISCRSSKSLLHSNGITYLYWYLQKPGQSPQLLIYRMSNLASGVPDRFSGSGSGTDFTLKISRVEAEDVGVYYCMQHLEYPLTFGGGTKLEIK | binds | –
humanized mAb002 antibody (VH15+VL1) (antibody, V domains shown, Full-length human IgG made in Expi293F cells) VH: QVQLQESGPGLVKPSQSLSLTCTVSGFSLTSFGIHWIRQPPGKGLEWIGVIWSGGITHYNSALMSRVSISKDTSKNQVSLKLSSVTAADTAMYYCAKLYSHPHAMDYWGQGTLVTVSS VL: DIVMTQSPLSLPVTPGEPASISCRSSKSLLHSNGITYLYWYLQKPGQSPQLLIYRMSNLASGVPDRFSGSGSGTDFTLKISRVEAEDVGVYYCMQHLEYPLTFGGGTKLEIK | binds | –
humanized mAb002 antibody (VH16+VL1) (antibody, V domains shown, Full-length human IgG made in Expi293F cells) VH: QVQLQESGPGLVAPSQTLSLTCTVSGFSLTSFGIHWIRQPPGKGLEWIGVIWSGGITHYNSALMSRVSISKDTSKNQVFLKLSSVTAADTAMYYCAKLYSHPHAMDYWGQGTLVTVSS VL: DIVMTQSPLSLPVTPGEPASISCRSSKSLLHSNGITYLYWYLQKPGQSPQLLIYRMSNLASGVPDRFSGSGSGTDFTLKISRVEAEDVGVYYCMQHLEYPLTFGGGTKLEIK | binds | –
humanized mAb002 antibody (VH13+VL1) (antibody, V domains shown, Full-length human IgG made in Expi293F cells) VH: QVQLKQSGPGLVAPSQSLSITCTVSGFSLTSFGIHWIRQPPGKGLEWIGVIWSGGITHYNSALMSRLSISKDTSKNQVFLKLSSVTAADTAMYYCAKLYSHPHAMDYWGQGTLVTVSS VL: DIVMTQSPLSLPVTPGEPASISCRSSKSLLHSNGITYLYWYLQKPGQSPQLLIYRMSNLASGVPDRFSGSGSGTDFTLKISRVEAEDVGVYYCMQHLEYPLTFGGGTKLEIK | binds | –
anti-human TRPV2 IgG antibody mAb001 (01a033) (antibody, V domains shown, Mouse IgG: VH joined to mouse CH1,2,3 and VL to CK, made in CHO-K1 cells, purified on Protein A; also called anti-hTRPV2 antibody (mAb001)) VH: QVQLKESGPDLVQPSQTLSLTCTVSGFSLTTYGVHWVRQPPGKGLEWVGTMGWDGKKYYNSALKSRLSISRDTSKNQVFLKLSSLQTEDTAMYYCTRDGGYTWFAYWGQGTLVTVSA VL: NIVMTQSPSSLAVSAGEKVTMSCKSSQSLLNSRTRKNYLAWYQQKPGQSPKLLIYWASTRESGVPDRFTGSGSGTDFTLTISSVQAEDLAVYYCKQSYNLFTFGGGTKLEIK | – | Kd [2]: 188 nM
